According to PMC9482650, “Quantitative fragmentomics allow affinity mapping of interactomes” (Nature Communications, 2022):

T1: APBA1_1, Q02410
T1 sequence (Q02410 651-752, limits assumed, looked up): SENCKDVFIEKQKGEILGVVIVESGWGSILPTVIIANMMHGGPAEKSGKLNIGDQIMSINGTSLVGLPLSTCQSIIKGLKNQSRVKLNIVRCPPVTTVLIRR

T2: APBA1_2, Q02410
T2 sequence (Q02410 742-832, limits assumed, looked up): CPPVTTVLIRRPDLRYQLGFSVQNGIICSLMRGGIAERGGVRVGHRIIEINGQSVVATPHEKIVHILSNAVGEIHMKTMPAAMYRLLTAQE

T3: GRIP1_3, Q9Y3R0
T3 sequence (Q9Y3R0 247-346, limits assumed, looked up): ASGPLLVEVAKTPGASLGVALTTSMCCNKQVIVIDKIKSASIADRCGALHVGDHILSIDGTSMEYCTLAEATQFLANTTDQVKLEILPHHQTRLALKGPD

T4: GRIP1_7, Q9Y3R0
T4 sequence (Q9Y3R0 999-1096, limits assumed, looked up): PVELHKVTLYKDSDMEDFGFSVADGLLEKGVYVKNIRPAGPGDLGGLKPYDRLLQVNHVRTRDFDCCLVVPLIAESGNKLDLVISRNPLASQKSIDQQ

T5: HTRA3, P83110
T5 sequence (P83110 354-453, limits assumed, looked up): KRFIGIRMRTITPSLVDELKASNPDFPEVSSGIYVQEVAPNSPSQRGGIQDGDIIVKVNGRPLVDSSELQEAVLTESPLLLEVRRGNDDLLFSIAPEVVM

T6: LNX2_3, Q8N448
T6 sequence (Q8N448 463-564, limits assumed, looked up): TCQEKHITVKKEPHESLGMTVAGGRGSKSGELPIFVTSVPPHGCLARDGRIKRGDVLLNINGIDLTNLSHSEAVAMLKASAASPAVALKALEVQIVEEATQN

T7: MPDZ_10, O75970
T7 sequence (O75970 1624-1722, limits assumed, looked up): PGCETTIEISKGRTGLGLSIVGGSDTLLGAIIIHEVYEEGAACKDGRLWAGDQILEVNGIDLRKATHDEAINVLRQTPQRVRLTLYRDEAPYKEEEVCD

T8: MPP7, Q5T2T1
T8 sequence (Q5T2T1 134-230, limits assumed, looked up): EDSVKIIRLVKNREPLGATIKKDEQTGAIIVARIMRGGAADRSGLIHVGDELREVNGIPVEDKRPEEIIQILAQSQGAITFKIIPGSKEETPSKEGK

T9: PDZD7_3, Q9H5P4
T9 sequence (Q9H5P4 857-944, limits assumed, looked up): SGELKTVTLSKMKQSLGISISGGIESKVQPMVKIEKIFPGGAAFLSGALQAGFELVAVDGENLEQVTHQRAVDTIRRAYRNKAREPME

T10: SHANK1, Q9Y566
T10 sequence (Q9Y566 658-767, limits assumed, looked up): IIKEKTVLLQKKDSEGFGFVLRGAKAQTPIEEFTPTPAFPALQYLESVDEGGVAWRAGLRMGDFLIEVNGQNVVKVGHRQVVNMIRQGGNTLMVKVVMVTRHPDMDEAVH

T11: SNTB1, Q13884
T11 sequence (Q13884 107-205, limits assumed, looked up): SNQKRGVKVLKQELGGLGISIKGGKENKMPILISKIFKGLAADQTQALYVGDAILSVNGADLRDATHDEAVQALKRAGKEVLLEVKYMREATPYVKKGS

T12: SYNJ2BP, P57105
T12 sequence (P57105 8-110, limits assumed, looked up): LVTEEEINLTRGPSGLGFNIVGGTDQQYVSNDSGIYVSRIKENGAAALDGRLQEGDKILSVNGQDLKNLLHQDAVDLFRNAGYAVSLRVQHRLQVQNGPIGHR

T13: TX1BP3, O14907
T13 sequence (O14907 10-122, limits assumed, looked up): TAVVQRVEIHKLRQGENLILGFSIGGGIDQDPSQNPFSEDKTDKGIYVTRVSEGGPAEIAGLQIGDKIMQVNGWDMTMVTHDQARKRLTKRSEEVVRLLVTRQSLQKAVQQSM

B1: ADGRA2, Q96PE1 (peptide)
chain: TGLWKSETTV
B2: PLEKHG7, Q6ZR37 (peptide)
chain: FTLPAESSEI
B3: GAB3, Q8WWW8 (peptide)
chain: EWTDERQSKV
B4: CLDN9, O95484 (peptide)
chain: ASGLDKRDYV

Experiments:
Assay in all cases: holdup assay
Parameters in all cases: key: below the threshold = too weak to quantify, mostly under pKd 3.1 to 4
Conditions in all cases: plain residues with an end cap or a label only (N-terminal biotin on a linker: ado-ado)
[1] = biological target: T1, APBA1_1, Q02410
[2] = biological target: T2, APBA1_2, Q02410
[3] = biological target: DLG2_2, Q15700
Chain of DLG2_2, Q15700 (Q15700 189-283): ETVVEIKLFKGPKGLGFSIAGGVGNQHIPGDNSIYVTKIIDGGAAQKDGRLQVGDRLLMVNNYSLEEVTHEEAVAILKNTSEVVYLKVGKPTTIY

[4] = biological target: FRMPD2_1, Q68DX3
Chain of FRMPD2_1, Q68DX3 (Q68DX3 770-861): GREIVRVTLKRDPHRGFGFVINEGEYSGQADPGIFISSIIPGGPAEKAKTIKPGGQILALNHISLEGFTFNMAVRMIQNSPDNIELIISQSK

[5] = biological target: GIPC2, Q8TF65
Chain of GIPC2, Q8TF65 (Q8TF65 112-203): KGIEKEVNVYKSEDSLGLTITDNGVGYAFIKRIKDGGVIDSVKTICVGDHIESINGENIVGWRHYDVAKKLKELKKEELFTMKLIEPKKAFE

[6] = biological target: GRID2IP_1, A4D2P6
Chain of GRID2IP_1, A4D2P6 (A4D2P6 1-87): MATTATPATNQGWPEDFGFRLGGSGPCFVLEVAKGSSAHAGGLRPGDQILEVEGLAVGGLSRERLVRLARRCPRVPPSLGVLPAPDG

[7] = biological target: GRID2IP_2, A4D2P6
Chain of GRID2IP_2, A4D2P6 (A4D2P6 272-370): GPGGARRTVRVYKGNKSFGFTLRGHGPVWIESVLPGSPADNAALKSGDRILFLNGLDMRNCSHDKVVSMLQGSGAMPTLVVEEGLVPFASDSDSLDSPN

[8] = biological target: T3, GRIP1_3, Q9Y3R0
[9] = biological target: T4, GRIP1_7, Q9Y3R0
[10] = biological target: T5, HTRA3, P83110
[11] = biological target: Inadl_1, Q8NI35
Chain of Inadl_1, Q8NI35 (Q8NI35 113-229): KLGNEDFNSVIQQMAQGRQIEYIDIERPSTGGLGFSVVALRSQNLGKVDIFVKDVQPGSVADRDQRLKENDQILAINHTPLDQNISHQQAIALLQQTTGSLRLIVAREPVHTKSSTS

[12] = biological target: T6, LNX2_3, Q8N448
[13] = biological target: MAGI3_2, Q5TCQ9
Chain of MAGI3_2, Q5TCQ9 (Q5TCQ9 398-503): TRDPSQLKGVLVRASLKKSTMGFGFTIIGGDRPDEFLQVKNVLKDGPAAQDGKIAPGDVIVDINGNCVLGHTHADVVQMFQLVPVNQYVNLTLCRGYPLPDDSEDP

[14] = biological target: MAST1, Q9Y2H9
Chain of MAST1, Q9Y2H9 (Q9Y2H9 962-1065): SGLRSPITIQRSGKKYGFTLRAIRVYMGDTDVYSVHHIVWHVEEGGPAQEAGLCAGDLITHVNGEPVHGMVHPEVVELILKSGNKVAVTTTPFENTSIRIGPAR

[15] = biological target: T7, MPDZ_10, O75970
[16] = biological target: T8, MPP7, Q5T2T1
[17] = biological target: NHERF4_4, Q86UT5
Chain of NHERF4_4, Q86UT5 (Q86UT5 464-550): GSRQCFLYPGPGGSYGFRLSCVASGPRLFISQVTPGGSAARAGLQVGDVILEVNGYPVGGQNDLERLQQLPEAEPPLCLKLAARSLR

[18] = biological target: PARD3_3, Q8TEW0
Chain of PARD3_3, Q8TEW0 (Q8TEW0 582-685): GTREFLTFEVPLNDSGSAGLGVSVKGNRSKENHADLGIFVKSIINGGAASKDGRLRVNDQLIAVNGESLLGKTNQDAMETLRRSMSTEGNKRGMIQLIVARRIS

[19] = biological target: T9, PDZD7_3, Q9H5P4
[20] = biological target: T10, SHANK1, Q9Y566
[21] = biological target: T11, SNTB1, Q13884
[22] = biological target: T12, SYNJ2BP, P57105
[23] = biological target: T13, TX1BP3, O14907

Row | Binder | pKd [1] | pKd [2] | pKd [3] | pKd [4] | pKd [5] | pKd [6] | pKd [7] | pKd [8] | pKd [9] | pKd [10] | pKd [11] | pKd [12] | pKd [13] | pKd [14] | pKd [15] | pKd [16] | pKd [17] | pKd [18] | pKd [19] | pKd [20] | further results
1 | B1 | below the threshold | 3.57 | 5.16 | below the threshold | 4.04 | below the threshold | below the threshold | below the threshold | below the threshold | below the threshold | below the threshold | below the threshold | 5.6 | 4.68 | below the threshold | below the threshold | below the threshold | below the threshold | 4.65 | below the threshold | pKd [21]: 4.55; pKd [22]: 5.08; pKd [23]: 4.87
2 | B2 | below the threshold | below the threshold | below the threshold | below the threshold | below the threshold | below the threshold | 4.2 | below the threshold | below the threshold | below the threshold | below the threshold | below the threshold | below the threshold | 4.53 | below the threshold | below the threshold | below the threshold | below the threshold | 3.97 | 4.17 | pKd [21]: below the threshold; pKd [22]: 3.98; pKd [23]: below the threshold
3 | B3 | below the threshold | 3.63 | 3.89 | below the threshold | 3.52 | below the threshold | 4.07 | below the threshold | below the threshold | below the threshold | below the threshold | below the threshold | 3.6 | below the threshold | 3.75 | below the threshold | below the threshold | below the threshold | 3.82 | 3.88 | pKd [21]: 4.62; pKd [22]: 3.72; pKd [23]: 3.72
4 | B4 | below the threshold | 4.35 | below the threshold | below the threshold | below the threshold | below the threshold | below the threshold | below the threshold | below the threshold | 3.79 | below the threshold | below the threshold | below the threshold | below the threshold | below the threshold | below the threshold | below the threshold | below the threshold | below the threshold | below the threshold | pKd [21]: below the threshold; pKd [22]: below the threshold; pKd [23]: 3.92
